The target of experiment [1] is T1, FcRn-His6 (UniProt P55899 24-365). Briefly: BLI; pH 6. (BLI is a label-free optical method that tracks binding on a fibre tip over time.)
The target of experiment [2] is T1, FcRn-His6. Briefly: BLI; pH 6. This is another data set of the same source.

Drawing on paper PMC10628450 (2023), this text covers koff and Kd for one molecule.

T1 sequence (P55899 24-297, chain 1 of 2): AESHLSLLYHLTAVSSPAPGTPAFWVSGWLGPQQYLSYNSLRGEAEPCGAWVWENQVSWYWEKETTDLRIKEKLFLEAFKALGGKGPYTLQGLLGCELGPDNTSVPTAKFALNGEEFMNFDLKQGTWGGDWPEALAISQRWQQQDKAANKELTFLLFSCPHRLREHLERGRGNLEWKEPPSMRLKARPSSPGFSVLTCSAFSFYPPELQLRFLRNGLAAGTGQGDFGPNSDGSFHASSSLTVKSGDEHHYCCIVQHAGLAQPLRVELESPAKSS
T1 sequence (chain, as listed by the source, chain 2 of 2): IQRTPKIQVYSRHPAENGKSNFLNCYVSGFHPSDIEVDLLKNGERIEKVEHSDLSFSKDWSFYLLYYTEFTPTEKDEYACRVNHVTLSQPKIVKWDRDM

B1: Anti-NKp46 IgG (antibody)
chain 1: QVQLVQSGAEVKKPGSSVKVSCKASGYTFSDYVINWVRQAPGQGLEWMGEIYPGSGTNYYNEKFKAKATITADKSTSTAYMELSSLRSEDTAVYYCARRGRYGLYAMDYWGQGTTVTVSS
chain 2: DIQMTQSPSSLSASVGDRVTITCRASQDISNYLNWYQQKPGKAPKLLIYYTSRLHSGVPSRFSGSGSGTDFTFTISSLQPEDIATYFCQQGNTRPWTFGGGTKVEIK
modifications: In-house soluble FcRn-His6, tag omitted; ectodomain limits from UniProt topology; beta-2-microglobulin is not named in the paper and is added by convention as the obligate light chain; check residues are not from the paper; N-glycosylated
On to B1, for which the koff (commonly the first-order rate constant of dissociation) with FcRn-His6 [1] was 0.0685 s⁻¹. For the same molecule, binding with FcRn-His6 [2] was characterised by a dissociation constant (Kd) of 361 nM.
